Data reported in IntAct's records for PubMed 28436967.

B1: Katanin p60 ATPase-containing subunit A1 (Mus musculus), Q9WV86 (parent)
chain: MSLQMIVENVKLAREYALLGNYDSAMVYYQGVLDQMNKYLYSVKDTHLRQKWQQVWQEINVEAKQVKDIMKTLESFKLDITSLQAAQHELPAAEGEVWSLPVPVERRPLPGPRKRQSSQHSDPKPHSNRPSTVVRAHRPSPQNLHNDRGKAVRSREKKEQSKGREEKNKLPAAVTEPEANKFDGTGYDKDLVEALERDIISQNPNVRWYDIADLVEAKKLLQEAVVLPMWMPEFFKGIRRPWKGVLMVGPPGTGKTLLAKAVATECKTTFFNVSSSTLTSKYRGESEKLVRLLFEMARFYSPATIFIDEIDSICSRRGTSEEHEASRRMKAELLVQMDGVGGASENDDPSKMVMVLAATNFPWDIDEALRRRLEKRIYIPLPSAKGREELLRISLRELELADDVNLASIAENMEGYSGADITNVCRDASLMAMRRRIEGLTPEEIRNLSREAMHMPTTMEDFEMALKKISKSVSAADIERYEKWIVEFGSC

Variants of: B1
Details: with ktnb1_mouse Katnb1, Q8BG40
ktnb1_mouse Katnb1, Q8BG40, sequence (Q8BG40 whole entry): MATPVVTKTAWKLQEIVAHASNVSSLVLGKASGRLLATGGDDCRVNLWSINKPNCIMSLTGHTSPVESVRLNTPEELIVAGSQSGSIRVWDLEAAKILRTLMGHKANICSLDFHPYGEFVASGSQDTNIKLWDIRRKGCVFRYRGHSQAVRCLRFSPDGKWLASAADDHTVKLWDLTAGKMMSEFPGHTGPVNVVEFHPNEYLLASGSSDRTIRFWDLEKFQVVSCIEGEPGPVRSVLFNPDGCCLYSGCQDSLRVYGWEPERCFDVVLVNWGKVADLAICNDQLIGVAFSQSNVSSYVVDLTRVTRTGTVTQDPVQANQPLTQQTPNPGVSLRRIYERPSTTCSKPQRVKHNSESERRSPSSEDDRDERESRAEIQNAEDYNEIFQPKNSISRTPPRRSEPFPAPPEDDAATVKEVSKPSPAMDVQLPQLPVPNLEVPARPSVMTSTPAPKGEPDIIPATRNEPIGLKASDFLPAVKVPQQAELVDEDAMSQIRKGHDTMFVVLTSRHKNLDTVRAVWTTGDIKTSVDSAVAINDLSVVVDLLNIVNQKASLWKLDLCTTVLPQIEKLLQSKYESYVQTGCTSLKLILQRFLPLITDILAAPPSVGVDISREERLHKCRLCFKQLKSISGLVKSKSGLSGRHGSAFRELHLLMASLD

Row | effect of a mutation on the interaction | Variant
1 | with no effect | L19A
2 | with no effect | L18A
